Values joined by “and” are separate entries in the source; they are usually repeats but may differ in a detail not shown here. Identical values can stand only once.
Molecular target: ectodomain of the epidermal growth factor receptor, EGFR25-645 (human)
Assay: BLI; biotinylated ligand (50 nM, 5 min) on streptavidin sensors, DDM proteomicelles of the membrane protein in the wells (six two-fold dilutions); 20 mM Tris-HCl, 300 mM KCl, 0.2% (w/v) DDM, 1 mg/ml BSA, pH 7.5; 22 °C; global fits, KD = koff/kon

TGF-α(GGS)2tFhuA, sequence (chain): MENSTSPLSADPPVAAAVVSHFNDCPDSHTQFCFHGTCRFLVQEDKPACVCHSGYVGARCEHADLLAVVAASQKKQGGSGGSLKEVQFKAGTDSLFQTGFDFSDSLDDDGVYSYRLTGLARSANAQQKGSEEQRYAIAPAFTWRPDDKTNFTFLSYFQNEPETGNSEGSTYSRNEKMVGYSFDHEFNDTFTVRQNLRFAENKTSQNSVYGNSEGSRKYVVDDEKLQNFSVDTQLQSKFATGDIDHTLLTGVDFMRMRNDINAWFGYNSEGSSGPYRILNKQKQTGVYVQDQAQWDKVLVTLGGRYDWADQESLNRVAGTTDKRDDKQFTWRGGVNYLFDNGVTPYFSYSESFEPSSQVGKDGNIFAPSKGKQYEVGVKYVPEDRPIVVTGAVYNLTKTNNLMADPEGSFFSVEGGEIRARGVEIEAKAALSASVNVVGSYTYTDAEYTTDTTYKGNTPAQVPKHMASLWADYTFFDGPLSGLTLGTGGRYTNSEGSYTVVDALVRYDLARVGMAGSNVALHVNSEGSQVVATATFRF

- kon: 2600 M⁻¹ s⁻¹ and 2400 M⁻¹ s⁻¹ and 2500 M⁻¹ s⁻¹
Substance: TGF-α(GGS)2tFhuA

— article PMC12613146
